Target: Nsp8 NTD (SARS-CoV-2, UniProt P0DTD1)
Assay: NMR

B1: model dsRNA (dsRNA)
RNA 1: GAUGCUACGCGGUAGUA
RNA 2: GUACUACCGCGUAGCAUC
- Kd: ~14.1 µM

Reference: article PMC10570013
